Measured values published in the Human Domainome abundance scans (Beltran et al. 2025).
± gives the uncertainty stated by the source.

assay: abundance fitness (aPCA) (normalised: wild type 0, dead -1); higher = more abundant; growth selection in yeast, the domain comes from the species named; conditions: Homo sapiens

Row | Substance | abundance fitness
1 | Lipoamide acyltransferase component of branched-chain alpha-keto acid dehydrogenase complex, mitochondrial V192T, P11182 | 0.046 ± 0.052
2 | Lipoamide acyltransferase component of branched-chain alpha-keto acid dehydrogenase complex, mitochondrial R178C, P11182 | -0.173 ± 0.083
3 | Lipoamide acyltransferase component of branched-chain alpha-keto acid dehydrogenase complex, mitochondrial V177L, P11182 | -0.321 ± 0.04
4 | Lipoamide acyltransferase component of branched-chain alpha-keto acid dehydrogenase complex, mitochondrial K211T, P11182 | -0.041 ± 0.056
5 | Lipoamide acyltransferase component of branched-chain alpha-keto acid dehydrogenase complex, mitochondrial V191L, P11182 | -0.117 ± 0.047
6 | Lipoamide acyltransferase component of branched-chain alpha-keto acid dehydrogenase complex, mitochondrial K211A, P11182 | 0.066 ± 0.043
7 | Lipoamide acyltransferase component of branched-chain alpha-keto acid dehydrogenase complex, mitochondrial L188C, P11182 | -0.388 ± 0.062
8 | Lipoamide acyltransferase component of branched-chain alpha-keto acid dehydrogenase complex, mitochondrial Q212E, P11182 | 0.02 ± 0.043
9 | Lipoamide acyltransferase component of branched-chain alpha-keto acid dehydrogenase complex, mitochondrial A176M, P11182 | -0.127 ± 0.043
10 | Nanos homolog 2 K112R, P60321 | -0.171 ± 0.096
11 | Lipoamide acyltransferase component of branched-chain alpha-keto acid dehydrogenase complex, mitochondrial T213W, P11182 | -0.247 ± 0.053
12 | Lipoamide acyltransferase component of branched-chain alpha-keto acid dehydrogenase complex, mitochondrial L172Q, P11182 | -0.428 ± 0.32
13 | Lipoamide acyltransferase component of branched-chain alpha-keto acid dehydrogenase complex, mitochondrial L201P, P11182 | -0.602 ± 0.062
14 | Lipoamide acyltransferase component of branched-chain alpha-keto acid dehydrogenase complex, mitochondrial N185E, P11182 | -0.09 ± 0.086
15 | Lipoamide acyltransferase component of branched-chain alpha-keto acid dehydrogenase complex, mitochondrial G195M, P11182 | -0.793 ± 0.16
16 | Lipoamide acyltransferase component of branched-chain alpha-keto acid dehydrogenase complex, mitochondrial R199A, P11182 | 0.016 ± 0.045
17 | Nanos homolog 2 L111K, P60321 | 0.292 ± 0.074
18 | Lipoamide acyltransferase component of branched-chain alpha-keto acid dehydrogenase complex, mitochondrial Y208I, P11182 | -0.072 ± 0.063
19 | Lipoamide acyltransferase component of branched-chain alpha-keto acid dehydrogenase complex, mitochondrial G214W, P11182 | -0.315 ± 0.054
20 | Lipoamide acyltransferase component of branched-chain alpha-keto acid dehydrogenase complex, mitochondrial Y208S, P11182 | -0.095 ± 0.041
21 | Lipoamide acyltransferase component of branched-chain alpha-keto acid dehydrogenase complex, mitochondrial G195H, P11182 | -0.7 ± 0.1
22 | Lipoamide acyltransferase component of branched-chain alpha-keto acid dehydrogenase complex, mitochondrial L172P, P11182 | -0.226 ± 0.057
23 | Lipoamide acyltransferase component of branched-chain alpha-keto acid dehydrogenase complex, mitochondrial T174C, P11182 | -0.141 ± 0.081
24 | Lipoamide acyltransferase component of branched-chain alpha-keto acid dehydrogenase complex, mitochondrial D197Q, P11182 | -0.183 ± 0.044
25 | Lipoamide acyltransferase component of branched-chain alpha-keto acid dehydrogenase complex, mitochondrial A173T, P11182 | -0.05 ± 0.042

Row | Substance | abundance fitness
26 | Lipoamide acyltransferase component of branched-chain alpha-keto acid dehydrogenase complex, mitochondrial L201G, P11182 | -0.275 ± 0.034
27 | Lipoamide acyltransferase component of branched-chain alpha-keto acid dehydrogenase complex, mitochondrial V191R, P11182 | -0.756 ± 0.045
28 | Lipoamide acyltransferase component of branched-chain alpha-keto acid dehydrogenase complex, mitochondrial M182C, P11182 | -0.478 ± 0.12
29 | Lipoamide acyltransferase component of branched-chain alpha-keto acid dehydrogenase complex, mitochondrial S189V, P11182 | -0.199 ± 0.043
30 | Lipoamide acyltransferase component of branched-chain alpha-keto acid dehydrogenase complex, mitochondrial V192M, P11182 | -0.066 ± 0.1
31 | Lipoamide acyltransferase component of branched-chain alpha-keto acid dehydrogenase complex, mitochondrial S194I, P11182 | -0.738 ± 0.12
32 | Lipoamide acyltransferase component of branched-chain alpha-keto acid dehydrogenase complex, mitochondrial L180W, P11182 | -0.56 ± 0.047
33 | Lipoamide acyltransferase component of branched-chain alpha-keto acid dehydrogenase complex, mitochondrial A173P, P11182 | -0.406 ± 0.087
34 | Lipoamide acyltransferase component of branched-chain alpha-keto acid dehydrogenase complex, mitochondrial K202L, P11182 | -0.118 ± 0.047
35 | Lipoamide acyltransferase component of branched-chain alpha-keto acid dehydrogenase complex, mitochondrial G198R, P11182 | -0.514 ± 0.044
36 | Lipoamide acyltransferase component of branched-chain alpha-keto acid dehydrogenase complex, mitochondrial D197P, P11182 | -0.76 ± 0.13
37 | Lipoamide acyltransferase component of branched-chain alpha-keto acid dehydrogenase complex, mitochondrial Q212A, P11182 | 0.006 ± 0.036
38 | Lipoamide acyltransferase component of branched-chain alpha-keto acid dehydrogenase complex, mitochondrial T213Q, P11182 | 0.005 ± 0.047
39 | Lipoamide acyltransferase component of branched-chain alpha-keto acid dehydrogenase complex, mitochondrial E190R, P11182 | -0.199 ± 0.04
40 | Lipoamide acyltransferase component of branched-chain alpha-keto acid dehydrogenase complex, mitochondrial G198W, P11182 | -0.982 ± 0.16
41 | Lipoamide acyltransferase component of branched-chain alpha-keto acid dehydrogenase complex, mitochondrial L201M, P11182 | -0.141 ± 0.069
42 | Lipoamide acyltransferase component of branched-chain alpha-keto acid dehydrogenase complex, mitochondrial G198H, P11182 | -0.267 ± 0.062
43 | Lipoamide acyltransferase component of branched-chain alpha-keto acid dehydrogenase complex, mitochondrial Y208W, P11182 | -0.186 ± 0.05
44 | Lipoamide acyltransferase component of branched-chain alpha-keto acid dehydrogenase complex, mitochondrial T171Y, P11182 | -0.022 ± 0.062
45 | Nanos homolog 2 I92Y, P60321 | -0.308 ± 0.14
46 | Lipoamide acyltransferase component of branched-chain alpha-keto acid dehydrogenase complex, mitochondrial L172S, P11182 | -0.251 ± 0.045
47 | Lipoamide acyltransferase component of branched-chain alpha-keto acid dehydrogenase complex, mitochondrial V191S, P11182 | -0.593 ± 0.054
48 | Lipoamide acyltransferase component of branched-chain alpha-keto acid dehydrogenase complex, mitochondrial L180H, P11182 | -0.938 ± 0.17
49 | Lipoamide acyltransferase component of branched-chain alpha-keto acid dehydrogenase complex, mitochondrial R179P, P11182 | -1.11 ± 0.085
50 | Lipoamide acyltransferase component of branched-chain alpha-keto acid dehydrogenase complex, mitochondrial I205N, P11182 | -0.551 ± 0.11
